Among the data in article PMC2680719 are percent of cells positive for tetramer values, retold here.

This experiment deals with m33 T cell receptor (high-affinity CDR3α mutant of 2C, displayed on 58−/− T cell hybridoma cells) (mouse). Description: flow cytometry on cells. In general terms: In flow cytometry, cells or beads pass a laser one at a time.

“SIYRYYGL/K^b tetramer (biotinylated SIY/K^b monomers on streptavidin:phycoerythrin) (from UniProt P01887 21-119) (peptide-MHC)” showed a percent of cells positive for tetramer of 84%.
